Test results as given in patent US20160009800A1.

Legend:
[1] = molecular target: human insulin receptor complexed with human insulin (human) (UniProt P06213); test: FACS, serum-starved CHO-K1 cells expressing human INSR, with insulin [cont'd]
[2] = molecular target: human insulin receptor complexed with human insulin (human) (UniProt P06213); test: FACS, CHO-K1 human INSR cells, signal with insulin divided by signal without insulin [cont'd]
[3] = molecular target: human insulin receptor complexed with human insulin (human) (UniProt P06213); test: FACS competition on hINSR8-CHOK1 cells with insulin; competitor Ab019
[4] = molecular target: human insulin receptor complexed with human insulin (human) (UniProt P06213); test: FACS, serum-starved CHO-K1 cells expressing human INSR, with insulin
[5] = molecular target: human insulin receptor complexed with human insulin (human) (UniProt P06213); test: FACS, CHO-K1 human INSR cells, signal with insulin divided by signal without insulin
[6] = molecular target: human insulin receptor (human) (UniProt P06213); test: FACS, serum-starved CHO-K1 cells expressing human INSR, no insulin
[7] = molecular target: mouse insulin receptor (mouse) (UniProt P15208); test: FACS, serum-starved CHO-K1 cells expressing mouse INSR, no insulin
[8] = molecular target: mouse insulin receptor complexed with human insulin (mouse; human) (UniProt P15208); test: FACS, serum-starved CHO-K1 cells expressing mouse INSR, with insulin
[9] = molecular target: mouse insulin receptor complexed with human insulin (mouse; human) (UniProt P15208); test: FACS, CHO-K1 mouse INSR cells, signal with insulin divided by signal without insulin
[10] = molecular target: mouse insulin receptor (mouse) (UniProt P15208); test: FACS, serum-starved CHO-K1 cells expressing mouse INSR, no insulin [cont'd]

FACS area under log transformed data MFI [1]	FACS area under log transformed data MFI ratio (+insulin/-insulin) [2]	FACS area under log transformed data MFI [4]	FACS area under log transformed data MFI ratio (+insulin/-insulin) [5]	further results	Binder
84	0.37	–	–	–	Ab072 (antibody, IgG2, V domains shown) VH: QMQLVQSGAEVKKPGESLKISCKGSGYSFTGYWIGWVRQMPGKGLEWMGIIYPGDSDTRYSPSFQGQVTISADKSISTAYLQWSSLKVSDTAMYYCGRISTPYAFDIWGQGTMVTVSS VL: SYVLTQPPSASGTPGQRVTISCSGSNSNIGSNFVTWYQQLPGAAPKLLIYTNSQRPSGVPDRFSGSRSGTSASLAISGLQSEDEADYFCAAWDDSLNGPVFGGGTQLTVL
–	–	59	0.29	percent competition [3]: < 30%	Ab061 (antibody, IgG2, V domains shown) VH: QMQLVQSGAEVKKTGESLKISCQGYGYRFTDNWIGWVRQMPGRGLEWMGIIYPGDSETRYSPSFQGQVTISADKSISTAYLEWSSLKASDTAMYYCARHAPLAVAGMALGDWGQGTLVTVSS VL: QTVVTQEPSFSVSPGGTVTLTCGLSSGSVSTGYSPGWYQQTPGQAPRTLVYNTNTRSSGVPDRFSGSILGNKAALTITGAQADDESDYYCALYMGSGTYVFGGGTKLTVL
–	–	87	0.56	FACS area under log transformed data MFI [6]: 155	Ab057 (antibody, IgG2, V domains shown) VH: QMQLVQSGAEVKKPGESLKISCKGYGYRFSDNWIGWVRQMPGRGLEWMGIIYPGDSETRYSPSFQGQVTISADKSISTAYLQWSSLKASDTAMYYCARHAPLAVAGMALGDWGQGTLVTVSS VL: QTVVTQEPSFSVSPGGTVTLTCGLTSGSVSTSYYPSWYQQTPGQAPRMLVHSTSTRYSGVPDRFSGSILGNKAALTITGAQADDESDYYCALYMGGGIYVFGGGTQLTVL
–	–	146	0.41	–	Ab069 (antibody, IgG2, V domains shown) VH: EVQLVQSGAEVKKPGESLKISCKGSGYSFTSYWIGWVRQMPGKGLEWMGIIYPGDSDTRYSPSFQGQVTISADKSISIAYLQWSSLKASDTAMYYCARLGRGYYGMDVWGQGTTVTVSS VL: SSELTQDPAVSVALGQTVRITCQGDSLRSYYASWYQQKPGQAPVLVIYGKNNRPSGIPDRFSGSRSGNTASLTITGAQAEDEADYYCNSRDSSGNHVVFGGGTKVTVL
150	0.53	–	–	–	Ab070 (antibody, IgG2, V domains shown) VH: EVQLVQSGAEVKKPGESLKISCKGSGYSFTSYWIGWVRQMPGKGLEWMGIIYPGDSDTRYSPSFQGQVTISADKSISTSYLQWSSLRASDTAMYYCARLGSGWYGNDYWGQGTLVTVSS VL: SSELTQDPAVSVALGQTVRITCQGDSLRSYYTSWYQQKPGQAPVLVIFGKNNRPSGIPDRFSGSSSGNTASLTITGAQAEDEADYYCNSRDSSGNYAVFGGGTQLTVL
–	–	134	0.3	–	Ab052 (antibody, IgG2, V domains shown) VH: EVQLVQSGAEVKKPGESLKISCKGSGYRFTSYWIGWVRQMPGRGLEWMGIIYPGDSDTRYSPSFQGQVTISVDKSISTAYLQWSSLKASDTAMYYCATHHASGRGLDPWGQGTLVTVSS VL: QAMLTQPASLSASPGASASLTCTLRSGINVVAYNIYWYRQKSGSPPQSVLRYKSDSDSERDSGVPSRFSGSKDVSANAGILLISGLQSEDEADYYCLIWHNSAWVFGGGTQLTVL
–	–	81	0.32	–	Ab050 (antibody, IgG2, V domains shown) VH: QVQLVQSGAELKKPGATVKISCKVSGYTFGDYHMHWVKQAPGKGLEWMGLVDPENGETEYGEKFQDRITMAADTSTDTAYMELSSLRSEDTAVYYCARSPSSSGYFRVDGFDIWGQGTMVTVSS VL: NFMLTQPHSVSESPGKTVSISCTGSSGSIGSNYVQWYQQRPGSAPTTVIYEDNQRPSGVPDRFSGSIDSSSNSASLTISGLKTEDEADYYCQSYYNSNVVFGGGTKLTVL
–	–	–	–	FACS area under log transformed data MFI [7]: 21; FACS area under log transformed data MFI [8]: 41; FACS area under log transformed data MFI ratio (+insulin/-insulin) [9]: 1.98	Ab056 (antibody, IgG2, V domains shown) VH: QVQLVQSGSEVKKPGASVKVSCKASGYTFTNSYMHWVRQAPGQGLEWMGIINPSAGTSYAQKFQGRVTMTRDTSTSTVYMELSSLKSEDTAVYYCARDVGWLPGDYWGQGTLVTVSS VL: QSALTQPASVSESPGQSITISCTGTGSDIGTYNLVSWYQHHPGKAPKLMIYEVTKRPSGVSNRFSGSKSGNTASLTISGLQAEDEADYYCSSYTSSSTLYVFGTGTKLTVL
–	–	57	0.28	–	Ab065 (antibody, IgG2, V domains shown) VH: QVQLVQSGAEVKKPGESLKISCKGSGYSFTSYWIGWVRQMPGKGLEWMGIIYPGDSDTRYSPSFQGQVTISADKSISTAYLQWSSLKASDTAMYYCARHELGIDYWGQGTLVTVSS VL: QAGLTQPPSVSKGLRQTATLTCTGDNNIVGDQGAAWLQQHQGHPPKLLSFRNNSRPSGISERFSASRSRNTASLTITRLQPEDAADYYCSAWDSFLSAWVFGGGTKLTVL
194	0.4	–	–	–	Ab071 (antibody, IgG2, V domains shown) VH: EVQLVQSGAEVKKPGESLKISCKGSGYSFTSYWIGWVRQMPGKGLEWMGIIYPGDSDTRYSPSFQGQVTISADKSISTAYLQWSSLKASDTAMYYCARWDAGYSPWGQGTLVTVSS VL: SSELTQDPAVSVALGQTVRITCQGDSLRSYYASWYQQKPGQAPVLVFYGKNNRPSGIPGRFSGSKSGNTASLTITGAQAEDEADYYCNSRDSSGNHWVFGGGTKLTVL
–	–	–	–	FACS area under log transformed data MFI [7]: 14; FACS area under log transformed data MFI [8]: 13	Ab059 (antibody, IgG2, V domains shown) VH: EVQLVQSGAEVKKPGSSVKVSCKASGGTFSSYAISWVRQAPGQGLEWMGRIIPIFGIANYAQKFQGRVTITADKSTSTAYMELSSLRSEDTAVYYCAREPDYDFWNDAFDIWGQGTMVTVSS VL: QAVLTQPASLSASPGASASLTCTLRSDISVGVYRISWYQQKPGSPPQYLLSYNSDSNNHQGSGVPSRFSGSKDASANAGILLISGLQSEDEADYYCMIWHINAWVFGGGTKVTVL
–	–	–	–	FACS area under log transformed data MFI [10]: 12	Ab078 (antibody, IgG2, V domains shown) VH: QVQLVQSGGGLVQPGGSLRLSCAASGFTFSSYSMNWVRQAPGKGLEWVSSISSSSSYIYYADSVKGRFTISRDNAKNSLYLQMNSLRAEDTAVYYCARDQGGELLGFTGYFDYWGQGTLVTVSS VL: DIQLTQSPSSLSASVGDRVTITCRASQGISSALAWYQQKPGKAPKVLIYDASSLERGVPSRFSGSGTGTDFTLTISSLQPEDFASYYCHQFNSYPDTFGQGTRLEIK
236	0.59	–	–	–	Ab082 (antibody, IgG2, V domains shown) VH: QMQLVQSGAEVKKPGESLKISCKGSGYSFTSYWIGWVRQMPGKGLEWMGIIYPGDSDTRYSPSFQGQVTISADKSISTAYLQWSSLKASDTAMYYCARWGPDAFDIWGQGTMVTVSS VL: EIVLTQSPDFQSVTPKETVTISCRASQNIGVSLHWYQQKPDQSPKVLIKYASQSLSGVPSRFSGTGSGTDFTLTIKSLEAEDAATYYCLQTSSLPWTFGQGTKVEIK
